Here are results for three substances from paper PMC5133854.

One data set has as its system Q9RGN5. Description: AFM single-molecule force spectroscopy; MUB covalently attached to both the AFM tip and the glass slide; PBS pH 7.4; force-volume mode; repeated after adding free MUB (0.05 mg/mL) or anti-Mub antibody (0.05 mg/mL). The settings on record: other: AFM single-molecule force spectroscopy.
The target of data set [1] is mucus-binding protein (MUB) from Lactobacillus reuteri ATCC 53608 (Lactobacillus reuteri ATCC 53608) (UniProt Q9RGN5). The description is as above.
The target of data set [2] is purified porcine gastric mucin (pPGM) (porcine). Description: AFM single-molecule force spectroscopy; MUB covalently attached to the AFM tip, pPGM covalently attached to the glass slide; PBS pH 7.4; force-volume mode, 2 um/s, 1024 force-distance curves; repeated on the same region after adding free sugars or anti-Mub antibody (0.05 mg/mL).
Data set [3] has the same target. Description: AFM single-molecule force spectroscopy; Gal-3 covalently attached to the AFM tip, pPGM covalently attached to the glass slide; PBS pH 7.4; force-volume mode.

With “mucus-binding protein (MUB) from Lactobacillus reuteri ATCC 53608”, the “percent of force curves with unfolding events” value in the data set on Q9RGN5 is “the numbers of unfolding events in the force volume maps were 71% of the 1024 force curves”.

For the substance “mucus-binding protein (MUB) from Lactobacillus reuteri ATCC 53608 (from UniProt Q9RGN5 1-3269) (natural protein)”, in data set [1], the modal value of the rupture adhesion force was 209 pN. In data set [2], this substance returned a modal value of the rupture adhesion force of 380 pN and a modal value of the rupture adhesion force (PBS, before the antibody) of 482 pN.

Consider “Galectin-3 (Gal-3) (from UniProt P17931 1-250) (natural protein)”, for which, in data set [3], the binding energy turned out to be 0.79 aJ and the energy (integration of the adhesive peaks) was found to be 3.08 aJ.
